Measured values taken from IntAct's records for PubMed 31515488.

B1: DNA mismatch repair protein Mlh1 (Homo sapiens), P40692 (parent)
chain: MSFVAGVIRRLDETVVNRIAAGEVIQRPANAIKEMIENCLDAKSTSIQVIVKEGGLKLIQIQDNGTGIRKEDLDIVCERFTTSKLQSFEDLASISTYGFRGEALASISHVAHVTITTKTADGKCAYRASYSDGKLKAPPKPCAGNQGTQITVEDLFYNIATRRKALKNPSEEYGKILEVVGRYSVHNAGISFSVKKQGETVADVRTLPNASTVDNIRSIFGNAVSRELIEIGCEDKTLAFKMNGYISNANYSVKKCIFLLFINHRLVESTSLRKAIETVYAAYLPKNTHPFLYLSLEISPQNVDVNVHPTKHEVHFLHEESILERVQQHIESKLLGSNSSRMYFTQTLLPGLAGPSGEMVKSTTSLTSSSTSGSSDKVYAHQMVRTDSREQKLDAFLQPLSKPLSSQPQAIVTEDKTDISSGRARQQDEEMLELPAPAEVAAKNQSLEGDTTKGTSEMSEKRGPTSSNPRKRHREDSDVEMVEDDSRKEMTAACTPRRRIINLTSVLSLQEEINEQGHEVLREMLHNHSFVGCVNPQWALAQHQTKLYLLNTTKLSEELFYQILIYDFANFGVLRLSEPAPLFDLAMLALDSPESGWTEEDGPKEGLAEYIVEFLKKKAEMLADYFSLEIDEEGNLIGLPLLIDNYVPPLEGLPIFILRLATEVNWDEEKECFESLSKECAMFYSIRKQYISEESTLSGQQSEVPGSIPNSWKWTVEHIVYKALRSHILPPKHFTEDGNILQLANLPDLYKVFERC
B2: Zinc finger and BTB domain-containing protein 49 (Homo sapiens), Q6ZSB9 (parent)
chain: MDPVATHSCHLLQQLHEQRIQGLLCDCMLVVKGVCFKAHKNVLAAFSQYFRSLFQNSSSQKNDVFHLDVKNVSGIGQILDFMYTSHLDLNQDNIQVMLDTAQCLQVQNVLSLCHTFLKSATVVQPPGMPCNSTLSLQSTLTPDATCVISENYPPHLLQECSADAQQNKTLDESHPHASPSVNRHHSAGEISKQAPDTSDGSCTELPFKQPNYYYKLRNFYSKQYHKHAAGPSQERVVEQPFAFSTSTDLTTVESQPCAVSHSECILESPEHLPSNFLAQPVNDSAPHPESDATCQQPVKQMRLKKAIHLKKLNFLKSQKYAEQVSEPKSDDGLTKRLESASKNTLEKASSQSAEEKESEEVVSCENFNCISETERPEDPAALEDQSQTLQSQRQYACELCGKPFKHPSNLELHKRSHTGEKPFECNICGKHFSQAGNLQTHLRRHSGEKPYICEICGKRFAASGDVQRHIIIHSGEKPHLCDICGRGFSNFSNLKEHKKTHTADKVFTCDECGKSFNMQRKLVKHRIRHTGERPYSCSACGKCFGGSGDLRRHVRTHTGEKPYTCEICNKCFTRSAVLRRHKKMHCKAGDESPDVLEELSQAIETSDLEKSQSSDSFSQDTSVTLMPVSVKLPVHPVENSVAEFDSHSGGSYCKLRSMIQPHGVSDQEKLSLDPGKLAKPQMQQTQPQAYAYSDVDTPAGGEPLQADGMAMIRSSLAALDNHGGDPLGSRASSTTYRNSEGQFFSSMTLWGLAMKTLQNENELDQ
B3: Isoform 1 of Equilibrative nucleoside transporter 1 (Homo sapiens), Q99808-1 (parent)
chain: MTTSHQPQDRYKAVWLIFFMLGLGTLLPWNFFMTATQYFTNRLDMSQNVSLVTAELSKDAQASAAPAAPLPERNSLSAIFNNVMTLCAMLPLLLFTYLNSFLHQRIPQSVRILGSLVAILLVFLITAILVKVQLDALPFFVITMIKIVLINSFGAILQGSLFGLAGLLPASYTAPIMSGQGLAGFFASVAMICAIASGSELSESAFGYFITACAVIILTIICYLGLPRLEFYRYYQQLKLEGPGEQETKLDLISKGEEPRAGKEESGVSVSNSQPTNESHSIKAILKNISVLAFSVCFIFTITIGMFPAVTVEVKSSIAGSSTWERYFIPVSCFLTFNIFDWLGRSLTAVFMWPGKDSRWLPSLVLARLVFVPLLLLCNIKPRRYLTVVFEHDAWFIFFMAAFAFSNGYLASLCMCFGPKKVKPAEAETAGAIMAFFLCLGLALGAVFSFLFRAIV
partner: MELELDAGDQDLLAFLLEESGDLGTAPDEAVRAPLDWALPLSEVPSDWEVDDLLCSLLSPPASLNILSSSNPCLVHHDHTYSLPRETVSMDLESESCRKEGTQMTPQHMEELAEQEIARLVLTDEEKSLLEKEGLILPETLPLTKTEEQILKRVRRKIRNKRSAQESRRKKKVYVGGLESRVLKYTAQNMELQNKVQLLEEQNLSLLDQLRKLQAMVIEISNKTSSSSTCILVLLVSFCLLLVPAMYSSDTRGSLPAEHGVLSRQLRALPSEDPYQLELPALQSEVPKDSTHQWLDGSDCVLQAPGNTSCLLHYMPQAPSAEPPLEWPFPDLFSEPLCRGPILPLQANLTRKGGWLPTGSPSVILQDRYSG
B4: Putative RNA-binding protein Luc7-like 2 (Homo sapiens), Q9Y383 (parent)
chain: MSAQAQMRAMLDQLMGTSRDGDTTRQRIKFSDDRVCKSHLLNCCPHDVLSGTRMDLGECLKVHDLALRADYEIASKEQDFFFELDAMDHLQSFIADCDRRTEVAKKRLAETQEEISAEVAAKAERVHELNEEIGKLLAKVEQLGAEGNVEESQKVMDEVEKARAKKREAEEVYRNSMPASSFQQQKLRVCEVCSAYLGLHDNDRRLADHFGGKLHLGFIEIREKLEELKRVVAEKQEKRNQERLKRREEREREEREKLRRSRSHSKNPKRSRSREHRRHRSRSMSRERKRRTRSKSREKRHRHRSRSSSRSRSRSHQRSRHSSRDRSRERSKRRSSKERFRDQDLASCDRDRSSRDRSPRDRDRKDKKRSYESANGRSEDRRSSEEREAGEI

Variants of: B1
Conditions: with msh3_human MSH3, P20585
With V326A the “effect of a mutation on the interaction” value was “disrupting interaction strength”.
V384D was tested, and the “effect of a mutation on the interaction” value was “with no effect”.
For S106N, the “effect of a mutation on the interaction” value was “with no effect”.

Variants of: B1
Conditions: with ima1_human KPNA2, P52292
With V326A the “effect of a mutation on the interaction” value was “disrupting interaction strength”.
In the case of V384D, the “effect of a mutation on the interaction” value is reported as “with no effect”.
With S106N the “effect of a mutation on the interaction” value was “with no effect”.

Variants of: B1
Conditions: with psa1_human PSMA1, P25786
For V326A, the “effect of a mutation on the interaction” value was “disrupting interaction strength”.
V384D was tested, and the “effect of a mutation on the interaction” value was “with no effect”.
For S106N, the “effect of a mutation on the interaction” value was “with no effect”.

Variants of: B2
Conditions: with gopc_human GOPC
For P627A, the “effect of a mutation on the interaction” value was “with no effect”.
With Y320S the “effect of a mutation on the interaction” value was “with no effect”.
In the case of G701D, the “effect of a mutation on the interaction” value is reported as “with no effect”.
In the case of C294R, the “effect of a mutation on the interaction” value is reported as “with no effect”.
E346K was tested, and the “effect of a mutation on the interaction” value was “with no effect”.

Variants of: B2
Conditions: with cep70_human CEP70, Q8NHQ1
P627A was tested, and the “effect of a mutation on the interaction” value was “with no effect”.
In the case of Y320S, the “effect of a mutation on the interaction” value is reported as “disrupting interaction strength”.
G701D was tested, and the “effect of a mutation on the interaction” value was “with no effect”.
For C294R, the “effect of a mutation on the interaction” value was “with no effect”.
E346K was tested, and the “effect of a mutation on the interaction” value was “with no effect”.

Variants of: B3
Conditions: with creb3_human CREB3, O43889
In the case of A293T, the “effect of a mutation on the interaction” value is reported as “with no effect”.

Variants of: B4
Conditions: with nfya_human NFYA
In the case of K368Q, the “effect of a mutation on the interaction” value is reported as “with no effect”.

Variants of: B4
Conditions: with srsf6_human SRSF6, Q13247
With K368Q the “effect of a mutation on the interaction” value was “with no effect”.
